Results reported in paper PMC7269643 (Science Advances, 2020).

Target: the molecule itself
Test: AUC

B1: VapB22 antitoxin (Rv2830c) from Mycobacterium tuberculosis, expressed alone from pET28b (natural protein)
chain: MTATEVKAKILSLLDEVAQGEEIEITKHGRTVARLVAATGPHALKGRFSGVAMAAADDDELFTTGVSWNVS
Question: Which “stoichiometry N” value does the source give for B1 here?
Answer: 2
